Data reported in patent US20260226185A1 (MAYO FOUNDATION FOR MEDICAL EDUCATION AND RESEARCH, published 2026).

Target: T1, human B-cell activating factor receptor (BAFF-R) polypeptide (human, UniProt Q96RJ3 1-184)
T1 sequence: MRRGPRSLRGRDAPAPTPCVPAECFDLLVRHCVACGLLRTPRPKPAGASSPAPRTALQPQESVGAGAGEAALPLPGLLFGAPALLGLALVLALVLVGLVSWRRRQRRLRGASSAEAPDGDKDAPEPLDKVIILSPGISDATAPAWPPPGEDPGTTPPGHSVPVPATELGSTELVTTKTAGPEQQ
Experiment: flow cytometry on BAFF-R expressing 293FT cells vs 293FT cells, R-PE goat anti-mouse IgG detection
Procedure: The lead clone was identified and advanced to purification. […] Following two washes in FACS (PBS with 2% bovine serum albumin), cells were incubated with R-PE conjugated goat anti-mouse IgG for 30 minutes at 4° C. Cells were then washed as before and resuspended in 400 μL FACS for analysis on an Attune flow cytometer (Thermo Fisher). […] Anti-BAFF-R monoclonal antibody development was monitored by R-phycoerythrin conjugated goat anti-mouse IgG (BD Bioscience, San Jose, California).

- binding result: binds
B1: anti-BAFF-R monoclonal antibody C21 (Clone #1) (antibody, V domains shown)
VH: DVQLVESGGGLVQPGGSRKLSCAASGFTFSSFGMHWVRQAPEKGLEWVAYINSGSSTINYADTVKGRFTISRDNPKNTLFLQMTSLRSEDTAMYYCTIYYYAMDYWGQGTSVTVSS
VL: DIVMSQSPSSLTVSVGEKVSMSCKSSQTLLYSGNQKNYLAWYQQKPGQSPKLLIYWASTRESGVPDRFAGSGSGTDFTLTISSVKAEDLAVYYCQQYYIYPPWTFGGGTKLEIK
notes: Mouse hybridoma antibody, tested as crude supernatant and as purified mAb and detected with R-PE goat anti-mouse IgG; the mouse constant regions and the isotype are not; also called hybridoma clone 21; mAb C21
